Source: patent US8461305B2, “L-fucose α1→6 specific lectin” (J-Oil Mills, Inc., priority 2008, dated 2013)

Legend:
[1] = frontal affinity chromatography (FAC), association constant to PA sugar chains having α1→6 L-fucose; format: binding; conditions: 25 degrees C.
Outline: (§1)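 Lectin coupled via primary amines to NHS-activated sepharose in a miniature column, run in TBS (pH 7.4) at 0.125 ml/min and 25 degrees C. PA sugar chains (3.75 nM or 7.5 nM) applied in excess, with elution monitored by fluorescence (ex 310/em 380 nm). Ka calculated from front-end delay (V−Vo) versus PA rhamnose and effective ligand amount (Bt).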

[2] = frontal affinity chromatography (FAC), association constant to PA sugar chains without L-fucose; format: binding; conditions: 25 degrees C.
Outline: as §1

B1: Pisum sativum agglutinin (protein)
chain: TETTSFLITKFSPDQQNLIFQGDGYTTKEKLTLTKAVKNTVGRALYSSPIHIWDRETGNVANFVTSFTFVINAPNSYNVADGFTFFIAPVDTKPQTGGGYLGVFNSAEYDKTTQTVAVEFDTFYNAAWDPSNRDRHIGIDVNSIKSVNTKSWKLQNGEEANVVIAFNAATNVLTVSLTYPNSLEEENVTSYTLSDVVSLKDVVPEWVRIGFSATTGAEYAAHEVLSWSFHSELSGTSSSKQAADA
- association constant Ka ([1]; Sugar chain No. 015): 120000 M⁻¹
- association constant Ka ([1]; Sugar chain No. 201): 100000 M⁻¹
- association constant Ka ([1]; Sugar chain No. 202): 44000 M⁻¹
- association constant Ka ([1]; Sugar chain No. 203): 25000 M⁻¹
- association constant Ka ([1]; Sugar chain No. 401): 92000 M⁻¹
- association constant Ka ([1]; Sugar chain No. 402): 48000 M⁻¹
- association constant Ka ([1]; Sugar chain No. 403): 38000 M⁻¹
- association constant Ka ([1]; Sugar chain No. 404): 45000 M⁻¹
- association constant Ka ([1]; Sugar chain No. 405): 36000 M⁻¹
- association constant Ka ([1]; Sugar chain No. 406): 13000 M⁻¹
- association constant Ka ([1]; Sugar chain No. 407): <1000 M⁻¹
- association constant Ka ([1]; Sugar chain No. 410): <1000 M⁻¹
- association constant Ka ([1]; Sugar chain No. 413): <1000 M⁻¹
- association constant Ka ([1]; Sugar chain No. 418): <1000 M⁻¹
- association constant Ka ([1]; Sugar chain No. 601): 31000 M⁻¹
- association constant Ka ([1]; Sugar chain No. 602): 29000 M⁻¹
- association constant Ka ([2]; Sugar chain No. 001): <1000 M⁻¹
- association constant Ka ([2]; Sugar chain No. 002): <1000 M⁻¹
- association constant Ka ([2]; Sugar chain No. 003): 7800 M⁻¹
- association constant Ka ([2]; Sugar chain No. 004): <1000 M⁻¹
- association constant Ka ([2]; Sugar chain No. 005): 7400 M⁻¹
- association constant Ka ([2]; Sugar chain No. 006): 7100 M⁻¹
- association constant Ka ([2]; Sugar chain No. 007): 7800 M⁻¹
- association constant Ka ([2]; Sugar chain No. 008): 10000 M⁻¹
- association constant Ka ([2]; Sugar chain No. 009): 7900 M⁻¹
- association constant Ka ([2]; Sugar chain No. 010): <1000 M⁻¹
- association constant Ka ([2]; Sugar chain No. 011): <1000 M⁻¹
- association constant Ka ([2]; Sugar chain No. 012): 17000 M⁻¹
- association constant Ka ([2]; Sugar chain No. 013): <1000 M⁻¹
- association constant Ka ([2]; Sugar chain No. 014): 8600 M⁻¹
- association constant Ka ([2]; Sugar chain No. 101): <1000 M⁻¹
- association constant Ka ([2]; Sugar chain No. 103): <1000 M⁻¹
- association constant Ka ([2]; Sugar chain No. 104): <1000 M⁻¹
- association constant Ka ([2]; Sugar chain No. 105): <1000 M⁻¹
- association constant Ka ([2]; Sugar chain No. 107): <1000 M⁻¹
- association constant Ka ([2]; Sugar chain No. 108): <1000 M⁻¹
- association constant Ka ([2]; Sugar chain No. 301): <1000 M⁻¹
- association constant Ka ([2]; Sugar chain No. 304): <1000 M⁻¹
- association constant Ka ([2]; Sugar chain No. 305): <1000 M⁻¹
- association constant Ka ([2]; Sugar chain No. 307): 2400 M⁻¹
- association constant Ka ([2]; Sugar chain No. 308): <1000 M⁻¹
- association constant Ka ([2]; Sugar chain No. 313): <1000 M⁻¹
- association constant Ka ([2]; Sugar chain No. 314): <1000 M⁻¹
- association constant Ka ([2]; Sugar chain No. 323): <1000 M⁻¹
- association constant Ka ([2]; Sugar chain No. 501): <1000 M⁻¹
- association constant Ka ([2]; Sugar chain No. 502): <1000 M⁻¹
- association constant Ka ([2]; Sugar chain No. 503): <1000 M⁻¹
- association constant Ka ([2]; Sugar chain No. 504): <1000 M⁻¹
- association constant Ka ([2]; Sugar chain No. 701): <1000 M⁻¹
- association constant Ka ([2]; Sugar chain No. 702): <1000 M⁻¹
- association constant Ka ([2]; Sugar chain No. 703): <1000 M⁻¹
- association constant Ka ([2]; Sugar chain No. 704): <1000 M⁻¹
- association constant Ka ([2]; Sugar chain No. 705): <1000 M⁻¹
- association constant Ka ([2]; Sugar chain No. 706): <1000 M⁻¹
- association constant Ka ([2]; Sugar chain No. 707): <1000 M⁻¹
- association constant Ka ([2]; Sugar chain No. 708): <1000 M⁻¹
- association constant Ka ([2]; Sugar chain No. 709): <1000 M⁻¹
- association constant Ka ([2]; Sugar chain No. 710): <1000 M⁻¹
- association constant Ka ([2]; Sugar chain No. 711): <1000 M⁻¹
- association constant Ka ([2]; Sugar chain No. 712): <1000 M⁻¹
- association constant Ka ([2]; Sugar chain No. 713): <1000 M⁻¹
- association constant Ka ([2]; Sugar chain No. 715): <1000 M⁻¹
- association constant Ka ([2]; Sugar chain No. 716): <1000 M⁻¹
- association constant Ka ([2]; Sugar chain No. 717): <1000 M⁻¹
- association constant Ka ([2]; Sugar chain No. 724): <1000 M⁻¹
- association constant Ka ([2]; Sugar chain No. 725): <1000 M⁻¹
- association constant Ka ([2]; Sugar chain No. 728 (as listed in Table 7)): <1000 M⁻¹
- association constant Ka ([2]; Sugar chain No. 732): <1000 M⁻¹
- association constant Ka ([2]; Sugar chain No. 733): <1000 M⁻¹
- association constant Ka ([2]; Sugar chain No. 734): <1000 M⁻¹
- association constant Ka ([2]; Sugar chain No. 735): <1000 M⁻¹
- association constant Ka ([2]; Sugar chain No. 736): <1000 M⁻¹
- association constant Ka ([2]; Sugar chain No. 737): <1000 M⁻¹
- association constant Ka ([2]; Sugar chain No. 738): <1000 M⁻¹
- association constant Ka ([2]; Sugar chain No. 901): <1000 M⁻¹
- association constant Ka ([2]; Sugar chain No. 902): <1000 M⁻¹
- association constant Ka ([2]; Sugar chain No. 903): <1000 M⁻¹
- association constant Ka ([2]; Sugar chain No. 905): <1000 M⁻¹
- association constant Ka ([2]; Sugar chain No. 906): <1000 M⁻¹
- association constant Ka ([2]; Sugar chain No. 907): <1000 M⁻¹
